Measured values from patent publication US20110177056A1.

Target: EGF receptor (ErbB1) on A431 cells (UniProt P00533)
Assay: cell-based or functional assay

B1: EGF variant v3 (EGFv3) (ligand)
chain: NSDPKCPLSHEGYCLNDGVCMYIGTLDRYACNCVVGYVGERCQYRDLKLAELR
pEC50 (phosphoY1068 EGF receptor, MSD electrochemiluminescence, A431 cells): 7.61 pEC50
